Data: patent publication US20110124560A1 (University of Pennsylvania, published 2011)

Columns and labels:
[1] = biological target: the molecule itself; assay: gel filtration of purified protein, fractions immunoblotted with anti-FOXP3 221D (self-association)
Excerpt: FIG. 2A is an image of an immunoblot and a corresponding graph of the relative amounts of FOXP3a detected by the immunoblot. To generate the immunoblot, purified His-tagged FOXP3a was size fractionated by gel filtration, and the fractions were subject to immunoblotting with anti-FOXP3 antibody. ImageJ software (http://rsb.info.nih.gov/ij/) was used for relative quantification of the bands.
Full length FOXP3a (the large isoform) with a 6× His tag was expressed in Sf9 insect cells and purified by Ni-NTA column. The purified His-tagged full length FOXP3a was size fractionated, followed by SDS-PAGE and immunoblotting of the individual fractions with anti-FOXP3 mAb 221D. Purified full length FOXP3a eluted from the gel filtration column as a dominant mixture of monomers, dimers, tetramers, and a detectable amount of oligomeric species (FIG. 2A).

[2] = biological target: the molecule itself; assay: co-immunoprecipitation from transfected HEK293T cells
Excerpt: Full-length FOXP3 E251 and K250 deletion mutants were created by site-directed mutagenesis and subcloned into mammalian expression vectors containing either myc or HA epitope tags at the N-terminus. HEK293T cells were transfected with the myc-tagged wild type FOXP3, myc-tagged FOXP3-delE251, HA-tagged wild type FOXP3, or HA-tagged FOXP3-delE251 vectors as indicated (FIG. 2C). The HA-tagged wild type FOXP3 species was able to homo-associate with the myc-tagged wild type FOXP3, but not with the myc-tagged delE251 mutant, and vice versa (FIG. 2C). […] Thus the leucine zipper domain is essential for FOXP3 homo-association.

B1: His-tagged full length FOXP3a (other, human, UniProt Q9BZS1 1-431, looked up)
chain: MPNPRPGKPSAPSLALGPSPGASPSWRAAPKASDLLGARGPGGTFQGRDLRGGAHASSSSLNPMPPSQLQLPTLPLVMVAPSGARLGPLPHLQALLQDRPHFMHQLSTVDAHARTPVLQVHPLESPAMISLTPPTTATGVFSLKARPGLPPGINVASLEWVSREPALLCTFPNPSAPRKDSTLSAVPQSSYPLLANGVCKWPGCEKVFEEPEDFLKHCQADHLLDEKGRAQCLLQREMVQSLEQQLVLEKEKLSAMQAHLAGKMALTKASSVASSDKGSCCIVAAGSQGPVVPAWSGPREAPDSLFAVRRHLWGSHGNSTFPEFLHNMDYFKFHNMRPPFTYATLIRWAILEAPEKQRTLNEIYHWFTRMFAFFRNHPATWKNAIRHNLSLHKCFVRVESEKGAVWTVDELEFRKKRSQRPSRCSNPTPGP
notes: Expressed in Sf9 insect cells, purified by Ni-NTA; also called Full length FOXP3a (the large isoform) with a 6x His tag; purified His-tagged FOXP3a; not shown: 6x His tag
B1: binds [1].

B2: FOXP3 delK250 mutant (other, human, UniProt Q9BZS1 1-431, looked up, not shown: small tags and cut ends)
chain: MPNPRPGKPSAPSLALGPSPGASPSWRAAPKASDLLGARGPGGTFQGRDLRGGAHASSSSLNPMPPSQLQLPTLPLVMVAPSGARLGPLPHLQALLQDRPHFMHQLSTVDAHARTPVLQVHPLESPAMISLTPPTTATGVFSLKARPGLPPGINVASLEWVSREPALLCTFPNPSAPRKDSTLSAVPQSSYPLLANGVCKWPGCEKVFEEPEDFLKHCQADHLLDEKGRAQCLLQREMVQSLEQQLVLEEKLSAMQAHLAGKMALTKASSVASSDKGSCCIVAAGSQGPVVPAWSGPREAPDSLFAVRRHLWGSHGNSTFPEFLHNMDYFKFHNMRPPFTYATLIRWAILEAPEKQRTLNEIYHWFTRMFAFFRNHPATWKNAIRHNLSLHKCFVRVESEKGAVWTVDELEFRKKRSQRPSRCSNPTPGP
notes: Deletion, not a substitution: K250 is removed; also called myc-delK250 FOXP3a; FOXP3 K250 deletion mutant
B2: no binding [2].
